Assay results: patent US20140087995A1 (published 2014)
Residue numbers refer to the chain shown, from its start. Numbered stars: 1 amine (or outer) side, 2 acyl side, 3 side chain; on linkers, the order of the positions; unused ones are H or OH. Bridge positions count the residues as written; N and C are the ends. Side chains are listed from the residue outwards. Ends that are not written are not given here. * marks the point of attachment. C20 diacid = O=C(O)CCCCCCCCCCCCCCCCCCC(=O)*; γGlu = O=C(O)[C@H](CCC(=O)[*:2])N[*:1]; AEEA = NCCOCCOCC(=O)O

T1: human calcitonin receptor (human, UniProt P30988 25-474)
T1 sequence (looked up): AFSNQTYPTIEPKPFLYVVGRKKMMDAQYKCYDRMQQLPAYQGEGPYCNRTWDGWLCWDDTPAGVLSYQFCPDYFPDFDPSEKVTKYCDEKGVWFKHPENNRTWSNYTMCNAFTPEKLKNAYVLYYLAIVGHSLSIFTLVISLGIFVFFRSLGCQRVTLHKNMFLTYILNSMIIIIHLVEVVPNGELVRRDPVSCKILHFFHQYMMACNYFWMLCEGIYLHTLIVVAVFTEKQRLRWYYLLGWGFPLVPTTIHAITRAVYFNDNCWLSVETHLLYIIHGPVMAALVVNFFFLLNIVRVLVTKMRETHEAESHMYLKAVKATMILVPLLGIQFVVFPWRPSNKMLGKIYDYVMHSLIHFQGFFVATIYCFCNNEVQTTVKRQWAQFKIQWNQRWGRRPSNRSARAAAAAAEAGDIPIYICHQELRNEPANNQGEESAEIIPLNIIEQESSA

T2: human amylin receptor (amylin 3(a) receptor: human calcitonin receptor co-expressed with RAMP-3) (human, UniProt P30988 25-474; O60896 24-148, limits assumed)
T2 sequence (looked up) 1: T1 sequence (looked up)
T2 sequence (looked up) 2: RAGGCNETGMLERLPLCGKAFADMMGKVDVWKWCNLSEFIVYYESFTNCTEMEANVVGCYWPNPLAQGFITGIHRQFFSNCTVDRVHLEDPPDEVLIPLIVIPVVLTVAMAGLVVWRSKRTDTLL

B1: N^ε1-[2-[2-[2-[[(4S)-4-carboxy-4-(19-carboxynonadecanoylamino)butanoyl]amino]ethoxy]ethoxy]acetyl]-[Arg17,Pro21,Pro27]-h-amylin (peptide)
peptide: K([AEEA-γGlu-C20 diacid])CNTATCATQRLANFLRHSSPNFGAIPSSTNVGSNTY-NH2
modifications: disulfide 2-7; N-terminus assumed
SMILES: CC[C@H](C)[C@H](NC(=O)[C@H](C)NC(=O)CNC(=O)[C@H](Cc1ccccc1)NC(=O)[C@H](CC(N)=O)NC(=O)[C@@H]1CCCN1C(=O)[C@H](CO)NC(=O)[C@H](CO)NC(=O)[C@H](Cc1c[nH]cn1)NC(=O)[C@H](CCCNC(=N)N)NC(=O)[C@H](CC(C)C)NC(=O)[C@H](Cc1ccccc1)NC(=O)[C@H](CC(N)=O)NC(=O)[C@H](C)NC(=O)[C@H](CC(C)C)NC(=O)[C@H](CCCNC(=N)N)NC(=O)[C@H](CCC(N)=O)NC(=O)[C@@H](NC(=O)[C@H](C)NC(=O)[C@@H]1CSSC[C@H](NC(=O)[C@@H](N)CCCCNC(=O)COCCOCCNC(=O)CC[C@H](NC(=O)CCCCCCCCCCCCCCCCCCC(=O)O)C(=O)O)C(=O)N[C@@H](CC(N)=O)C(=O)N[C@@H]([C@@H](C)O)C(=O)N[C@@H](C)C(=O)N[C@@H]([C@@H](C)O)C(=O)N1)[C@@H](C)O)C(=O)N1CCC[C@H]1C(=O)N[C@@H](CO)C(=O)N[C@@H](CO)C(=O)N[C@H](C(=O)N[C@@H](CC(N)=O)C(=O)N[C@H](C(=O)NCC(=O)N[C@@H](CO)C(=O)N[C@@H](CC(N)=O)C(=O)N[C@H](C(=O)N[C@@H](Cc1ccc(O)cc1)C(N)=O)[C@@H](C)O)C(C)C)[C@@H](C)O
notes: also called compound 41
B2: N^ε1-[2-[2-[2-[[(4S)-4-carboxy-4-(19-carboxynonadecanoylamino)butanoyl]amino]ethoxy]ethoxy]acetyl]-[Arg14,Arg17,Pro21,Pro27,Pro31]-h-amylin (peptide)
peptide: K([AEEA-γGlu-C20 diacid])CNTATCATQRLARFLRHSSPNFGAIPSSTPVGSNTY-NH2
modifications: disulfide 2-7; N-terminus assumed
SMILES: CC[C@H](C)[C@H](NC(=O)[C@H](C)NC(=O)CNC(=O)[C@H](Cc1ccccc1)NC(=O)[C@H](CC(N)=O)NC(=O)[C@@H]1CCCN1C(=O)[C@H](CO)NC(=O)[C@H](CO)NC(=O)[C@H](Cc1c[nH]cn1)NC(=O)[C@H](CCCNC(=N)N)NC(=O)[C@H](CC(C)C)NC(=O)[C@H](Cc1ccccc1)NC(=O)[C@H](CCCNC(=N)N)NC(=O)[C@H](C)NC(=O)[C@H](CC(C)C)NC(=O)[C@H](CCCNC(=N)N)NC(=O)[C@H](CCC(N)=O)NC(=O)[C@@H](NC(=O)[C@H](C)NC(=O)[C@@H]1CSSC[C@H](NC(=O)[C@@H](N)CCCCNC(=O)COCCOCCNC(=O)CC[C@H](NC(=O)CCCCCCCCCCCCCCCCCCC(=O)O)C(=O)O)C(=O)N[C@@H](CC(N)=O)C(=O)N[C@@H]([C@@H](C)O)C(=O)N[C@@H](C)C(=O)N[C@@H]([C@@H](C)O)C(=O)N1)[C@@H](C)O)C(=O)N1CCC[C@H]1C(=O)N[C@@H](CO)C(=O)N[C@@H](CO)C(=O)N[C@H](C(=O)N1CCC[C@H]1C(=O)N[C@H](C(=O)NCC(=O)N[C@@H](CO)C(=O)N[C@@H](CC(N)=O)C(=O)N[C@H](C(=O)N[C@@H](Cc1ccc(O)cc1)C(N)=O)[C@@H](C)O)C(C)C)[C@@H](C)O
notes: also called compound 64
B3: N^ε1-[2-[2-[2-[[(4S)-4-carboxy-4-(19-carboxynonadecanoylamino)butanoyl]amino]ethoxy]ethoxy]acetyl]-[Ala14,Arg17,Pro21,Pro27,Pro31]-h-amylin (peptide)
peptide: K([AEEA-γGlu-C20 diacid])CNTATCATQRLAAFLRHSSPNFGAIPSSTPVGSNTY-NH2
modifications: disulfide 2-7; N-terminus assumed
SMILES: CC[C@H](C)[C@H](NC(=O)[C@H](C)NC(=O)CNC(=O)[C@H](Cc1ccccc1)NC(=O)[C@H](CC(N)=O)NC(=O)[C@@H]1CCCN1C(=O)[C@H](CO)NC(=O)[C@H](CO)NC(=O)[C@H](Cc1c[nH]cn1)NC(=O)[C@H](CCCNC(=N)N)NC(=O)[C@H](CC(C)C)NC(=O)[C@H](Cc1ccccc1)NC(=O)[C@H](C)NC(=O)[C@H](C)NC(=O)[C@H](CC(C)C)NC(=O)[C@H](CCCNC(=N)N)NC(=O)[C@H](CCC(N)=O)NC(=O)[C@@H](NC(=O)[C@H](C)NC(=O)[C@@H]1CSSC[C@H](NC(=O)[C@@H](N)CCCCNC(=O)COCCOCCNC(=O)CC[C@H](NC(=O)CCCCCCCCCCCCCCCCCCC(=O)O)C(=O)O)C(=O)N[C@@H](CC(N)=O)C(=O)N[C@@H]([C@@H](C)O)C(=O)N[C@@H](C)C(=O)N[C@@H]([C@@H](C)O)C(=O)N1)[C@@H](C)O)C(=O)N1CCC[C@H]1C(=O)N[C@@H](CO)C(=O)N[C@@H](CO)C(=O)N[C@H](C(=O)N1CCC[C@H]1C(=O)N[C@H](C(=O)NCC(=O)N[C@@H](CO)C(=O)N[C@@H](CC(N)=O)C(=O)N[C@H](C(=O)N[C@@H](Cc1ccc(O)cc1)C(N)=O)[C@@H](C)O)C(C)C)[C@@H](C)O
notes: also called compound 72
B4: N^ε1-[2-[2-[2-[[(4S)-4-carboxy-4-(19-carboxynonadecanoylamino)butanoyl]amino]ethoxy]ethoxy]acetyl]-[Arg17,Pro21,Pro27,Arg34]-h-amylin (peptide)
peptide: K([AEEA-γGlu-C20 diacid])CNTATCATQRLANFLRHSSPNFGAIPSSTNVGRNTY-NH2
modifications: disulfide 2-7; N-terminus assumed
SMILES: CC[C@H](C)[C@H](NC(=O)[C@H](C)NC(=O)CNC(=O)[C@H](Cc1ccccc1)NC(=O)[C@H](CC(N)=O)NC(=O)[C@@H]1CCCN1C(=O)[C@H](CO)NC(=O)[C@H](CO)NC(=O)[C@H](Cc1c[nH]cn1)NC(=O)[C@H](CCCNC(=N)N)NC(=O)[C@H](CC(C)C)NC(=O)[C@H](Cc1ccccc1)NC(=O)[C@H](CC(N)=O)NC(=O)[C@H](C)NC(=O)[C@H](CC(C)C)NC(=O)[C@H](CCCNC(=N)N)NC(=O)[C@H](CCC(N)=O)NC(=O)[C@@H](NC(=O)[C@H](C)NC(=O)[C@@H]1CSSC[C@H](NC(=O)[C@@H](N)CCCCNC(=O)COCCOCCNC(=O)CC[C@H](NC(=O)CCCCCCCCCCCCCCCCCCC(=O)O)C(=O)O)C(=O)N[C@@H](CC(N)=O)C(=O)N[C@@H]([C@@H](C)O)C(=O)N[C@@H](C)C(=O)N[C@@H]([C@@H](C)O)C(=O)N1)[C@@H](C)O)C(=O)N1CCC[C@H]1C(=O)N[C@@H](CO)C(=O)N[C@@H](CO)C(=O)N[C@H](C(=O)N[C@@H](CC(N)=O)C(=O)N[C@H](C(=O)NCC(=O)N[C@@H](CCCNC(=N)N)C(=O)N[C@@H](CC(N)=O)C(=O)N[C@H](C(=O)N[C@@H](Cc1ccc(O)cc1)C(N)=O)[C@@H](C)O)C(C)C)[C@@H](C)O
notes: also called compound 78
B5: N^α1-[(4S)-4-carboxy-4-(19-carboxynonadecanoylamino)butanoyl]-[Arg17,Pro21,Pro27,Arg34]-h-amylin (peptide)
peptide: KCNTATCATQRLANFLRHSSPNFGAIPSSTNVGRNTY
modifications: alpha amino group of the N-terminal residue (Lys1) acylated with C20 diacid-gGlu; disulfide bridge Cys2-Cys7; C-terminal amide
notes: also called compound 39
B6: N^ε1-[2-[2-[2-[[(4S)-4-carboxy-4-(19-carboxynonadecanoylamino)butanoyl]amino]ethoxy]ethoxy]acetyl]-[Arg17,Pro21,Pro27,His34]-h-amylin (peptide)
peptide: K([AEEA-γGlu-C20 diacid])CNTATCATQRLANFLRHSSPNFGAIPSSTNVGHNTY-NH2
modifications: disulfide 2-7; N-terminus assumed
SMILES: CC[C@H](C)[C@H](NC(=O)[C@H](C)NC(=O)CNC(=O)[C@H](Cc1ccccc1)NC(=O)[C@H](CC(N)=O)NC(=O)[C@@H]1CCCN1C(=O)[C@H](CO)NC(=O)[C@H](CO)NC(=O)[C@H](Cc1c[nH]cn1)NC(=O)[C@H](CCCNC(=N)N)NC(=O)[C@H](CC(C)C)NC(=O)[C@H](Cc1ccccc1)NC(=O)[C@H](CC(N)=O)NC(=O)[C@H](C)NC(=O)[C@H](CC(C)C)NC(=O)[C@H](CCCNC(=N)N)NC(=O)[C@H](CCC(N)=O)NC(=O)[C@@H](NC(=O)[C@H](C)NC(=O)[C@@H]1CSSC[C@H](NC(=O)[C@@H](N)CCCCNC(=O)COCCOCCNC(=O)CC[C@H](NC(=O)CCCCCCCCCCCCCCCCCCC(=O)O)C(=O)O)C(=O)N[C@@H](CC(N)=O)C(=O)N[C@@H]([C@@H](C)O)C(=O)N[C@@H](C)C(=O)N[C@@H]([C@@H](C)O)C(=O)N1)[C@@H](C)O)C(=O)N1CCC[C@H]1C(=O)N[C@@H](CO)C(=O)N[C@@H](CO)C(=O)N[C@H](C(=O)N[C@@H](CC(N)=O)C(=O)N[C@H](C(=O)NCC(=O)N[C@@H](Cc1c[nH]cn1)C(=O)N[C@@H](CC(N)=O)C(=O)N[C@H](C(=O)N[C@@H](Cc1ccc(O)cc1)C(N)=O)[C@@H](C)O)C(C)C)[C@@H](C)O
notes: also called compound 76
B7: N^α1-[(4S)-4-carboxy-4-(19-carboxynonadecanoylamino)butanoyl]-[Arg17,Pro21,Pro27,His34]-h-amylin (peptide)
peptide: B5 peptide with R34H
modifications: alpha amino group of the N-terminal residue (Lys1) acylated with C20 diacid-gGlu; disulfide bridge Cys2-Cys7; C-terminal amide
notes: also called compound 40

Each binder was assayed against T1, human calcitonin receptor (assay: cell-based or functional assay).

| Ratio hCT/hAmylin funct. (hCTR EC50 against hAmylin-R EC50) | hCTR funct. EC50 [nM] | Binder |
| --- | --- | --- |
| 16.7 | 4.35 | B1 |
| 60.7 | 22.9 | B2 |
| 44.9 | 4.76 | B3 |
| 25.8 | 8.17 | B4 |
| 11.6 | 2.52 | B5 |
| 9.8 | 0.625 | K([AEEA-γGlu-C20 diacid])CNTATCATQRLANFLRHSSPNFGAIPPSTPVGSNTY-NH2 (disulfide 2-7, also called compound 53) |
| 24.8 | 7.37 | B6 |
| 16.4 | – | B7 |

Each binder was assayed against T2, human amylin receptor (amylin 3(a) …) (assay: cell-based or functional assay).

| hAmylin-R funct. EC50 [nM] | Binder |
| --- | --- |
| 0.26 | B1 |
| 0.378 | B2 |
| 0.106 | B3 |
| 0.316 | B4 |
| 0.217 | B5 |
| 0.064 | K([AEEA-γGlu-C20 diacid])CNTATCATQRLANFLRHSSPNFGAIPPSTPVGSNTY-NH2 (disulfide 2-7, also called compound 53) |
| 0.297 | B6 |
| 0.164 | B7 |
